Results from patent US20180230218A1.
Where a chain is given by its changes, count along the chain named.

B1: hucMet22Gv2.2 (antibody, V domains shown)
VH: QVQLVQSGAEVKKPGASVKVSCKASGYTFTDYNMDWVRQAPGQRLEWIGDLNPNNGATIYNQKFKGRATLTVDMSASTAYMELSSLRSEDTAVYYCARGNYYGNYYYLMDYWGQGTSVTVSS
VL: DIQMTQSPSSLSASVGDRVTITCRASENIYSTLAWYQQKPGKAPKLLVYAATNLADGVPSRFSGSGSGTDYTLTISSLQPEDFATYYCQHFWGTPYTFGQGTKVEIKR
B2: hu247.22.2-SMCC-DM1 (antibody, human IgG1, kappa, V domains shown)
VH: EVQLVQSGAEVVKPGASVKIPCKASGYTFTDYNMDWVRQSPGKSLEWIGDLNPNNGATIYNEKFQGKATLTVDTSSSTAYMELRSLTSEDTAVYYCARGNYYGNYYYLMDYWGQGTSVTVSS
VL: DIQMTQSPSSLSVSVGERVTITCRASENIYSTLAWYQQKPGKSPKLLVYAATNLADGVPSRFSGSGSGTEYSLKINSLQPDDFGSYYCQHFWGTPYTFGGGTKLEIKR
modifications: DM1 linked through SMCC, average of 3-4 DM1 molecules per antibody; sites (heavy or light chain) not stated
B3: hucMet27v1.2 (antibody, human IgG1, kappa, V domains shown)
VH: EVQLVESGGGLVQPGGSLRLSCAASGFTFSSYDMSWVRQTPGKGLELVATINSNGVSIYYPDSVKGRFTISRDIAKNTLYLQMSSLRAEDTAMYYCAREEITTEMDYWGQGTSVTVSS
VL: DIVLTQSPASLAVSPGQRATISCRASESVDSYGNSFIHWYQQKPGQPPKLLIYRASNLESGIPARFSGSGSRTDFTLTINPVEANDVATYYCQQSNEEPLTFGGGTKLELKR
B4: hucMET27Gv1.1 (antibody, human IgG1, kappa, V domains shown)
VH: B3 VH with T40A, L47W, A49S, I74N, T78S, S84N, M93V, S113L
VL: EIVLTQSPATLSLSPGERATLSCRASESVDSYGNSFIHWYQQKPGQAPRLLIYRASNLESGIPARFSGSGSGTDFTLTISSLEPEDFAVYYCQQSNEEPLTFGQGTKVELKR
B5: hucMet27Gv1.2 (antibody, human IgG1, kappa, V domains shown)
VH: B3 VH with T40A, T78S, S84N, M93V, S113L
VL: B4 VL
B6: hucMET27Gv2.1 (antibody, human IgG1, kappa, V domains shown)
VH: B3 VH with T40A, L47W, A49S, I74N, T78S, S84N, M93V, S113L
VL: B4 VL with G72R
B7: hucMET27Gv2.2 (antibody, human IgG1, kappa, V domains shown)
VH: B3 VH with T40A, T78S, S84N, M93V, S113L
VL: B4 VL with G72R
B8: hu247.22.2 (antibody, human IgG1, kappa, V domains shown)
VH: B2 VH
VL: B2 VL
B9: hu247.22.2-SPDB-DM4 (antibody, human IgG1, kappa, V domains shown)
VH: B2 VH
VL: B2 VL
modifications: DM4 linked through SPDB; number and sites not stated for this conjugate
B10: hucMet22Gv2.2-DGN549 (antibody, human IgG1, kappa, V domains shown)
VH: B1 VH
VL: B1 VL
modifications: DGN549 conjugate; linkage site not stated for this antibody
B11: hucMet22Gv2.2-sSPDB-DM4 (antibody, human IgG1, kappa, V domains shown)
VH: B1 VH
VL: B1 VL
modifications: lysines linked to sSPDB-DM4, on average 3-4 DM4 per antibody
B12: hucMet27v1.2-sSPDB-DM4 (antibody, human IgG1, kappa, V domains shown)
VH: B3 VH
VL: B3 VL
modifications: lysines linked to sSPDB-DM4, on average 3-4 DM4 per antibody
B13: hucMet27v1.2-DGN549 (antibody, human IgG1, kappa, V domains shown)
VH: B3 VH
VL: B3 VL
modifications: lysine-linked DGN549
B14: hucMet27Gv1.2-DGN549 (antibody, human IgG1, kappa, V domains shown)
VH: B3 VH with T40A, T78S, S84N, M93V, S113L
VL: B4 VL
modifications: DGN549 conjugate; linkage site not stated for this antibody
B15: hucMet27Gv1.2-sSPDB-DM4 (antibody, human IgG1, kappa, V domains shown)
VH: B3 VH with T40A, T78S, S84N, M93V, S113L
VL: B4 VL
modifications: sSPDB-DM4 conjugate; preparation of this one not described

Target: human cMET (MET, c-Met, HGF receptor) on cells (human) (UniProt P08581)
Sequence (P08581 25-1390): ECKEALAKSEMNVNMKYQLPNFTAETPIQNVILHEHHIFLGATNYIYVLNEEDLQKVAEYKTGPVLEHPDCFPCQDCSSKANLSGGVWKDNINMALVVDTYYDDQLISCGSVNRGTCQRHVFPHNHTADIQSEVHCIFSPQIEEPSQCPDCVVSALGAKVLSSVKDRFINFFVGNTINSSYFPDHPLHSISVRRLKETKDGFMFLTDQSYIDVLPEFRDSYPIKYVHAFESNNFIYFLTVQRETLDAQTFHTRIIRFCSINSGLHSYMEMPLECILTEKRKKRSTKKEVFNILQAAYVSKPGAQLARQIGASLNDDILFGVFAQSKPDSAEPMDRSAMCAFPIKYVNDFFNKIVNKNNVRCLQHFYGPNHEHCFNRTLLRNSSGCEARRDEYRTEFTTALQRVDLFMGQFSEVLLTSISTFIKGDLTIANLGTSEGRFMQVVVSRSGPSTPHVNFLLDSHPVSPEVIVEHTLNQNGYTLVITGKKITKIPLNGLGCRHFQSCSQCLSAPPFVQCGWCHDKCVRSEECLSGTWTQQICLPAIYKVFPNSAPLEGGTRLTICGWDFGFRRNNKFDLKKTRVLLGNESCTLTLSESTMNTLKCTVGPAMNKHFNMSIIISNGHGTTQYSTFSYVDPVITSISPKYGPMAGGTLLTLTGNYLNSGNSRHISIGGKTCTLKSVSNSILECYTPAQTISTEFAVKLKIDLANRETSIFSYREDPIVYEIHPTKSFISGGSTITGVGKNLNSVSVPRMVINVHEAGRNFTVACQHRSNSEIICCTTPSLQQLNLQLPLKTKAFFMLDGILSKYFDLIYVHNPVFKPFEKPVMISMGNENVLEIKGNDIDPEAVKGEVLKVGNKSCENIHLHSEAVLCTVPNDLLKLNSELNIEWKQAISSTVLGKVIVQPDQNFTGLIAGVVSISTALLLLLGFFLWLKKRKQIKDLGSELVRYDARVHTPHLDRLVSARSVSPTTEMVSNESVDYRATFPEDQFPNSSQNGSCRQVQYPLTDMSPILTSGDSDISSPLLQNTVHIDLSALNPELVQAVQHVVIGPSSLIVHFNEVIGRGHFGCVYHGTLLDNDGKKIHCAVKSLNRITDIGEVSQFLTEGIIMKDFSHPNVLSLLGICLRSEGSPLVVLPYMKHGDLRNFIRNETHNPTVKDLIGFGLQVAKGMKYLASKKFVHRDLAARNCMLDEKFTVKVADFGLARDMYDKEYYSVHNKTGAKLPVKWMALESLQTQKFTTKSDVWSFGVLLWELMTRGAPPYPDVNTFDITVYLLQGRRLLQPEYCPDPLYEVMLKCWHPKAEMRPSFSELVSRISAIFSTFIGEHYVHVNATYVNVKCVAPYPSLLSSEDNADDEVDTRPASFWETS
Assay: cell-based or functional assay

Binder	percent induction of NCI-H441 cell growth (WST-8), normalised to 100 ng/mL HGF [%]	in vitro cytotoxicity in MET-expressing MKN45 cells, EC50 [nM]
B1	72	–
B2	–	0.07

Target: human cMET (MET, c-Met, HGF receptor) on cells (human) (UniProt P08581)
Assay: flow cytometry (FACS), direct binding to NCI-H441 cells expressing human cMET

Binder	EC50 (read off the curve) [nM]
B3	0.4
B4	0.2
B5	0.2
B6	0.2
B7	0.2

Target: human cMET (MET, c-Met, HGF receptor) on cells (human) (UniProt P08581)
Assay: flow cytometry on MET-expressing BxPC3 cells, FITC anti-human IgG; 'affinity' (apparent)

Binder	Kd [nM]
B2	0.08
B8	0.09
B9	0.07

Target: human cMET (MET, c-Met, HGF receptor) on cells (human) (UniProt P08581)
Assay: flow cytometry (FACS) on EBC-1 cells endogenously expressing human cMet, fluorescent secondary antibody

Binder	EC50 (read off the curve) [nM]
B1	0.1
B3	0.3
B10	0.2
B11	0.2
B12	0.2
B13	0.4
B5	0.5
B14	0.4
B15	0.5
